According to the supplement of paper PMC12042874:
± gives the uncertainty stated by the source.

experiment: amyloid nucleation score (Sup35N fusion, yeast selection) (log enrichment); library NNK1; higher = more nucleation; inactive = no reads after selection
Procedure, shortened: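 For the nucleation score, DiMSum gave the log enrichment of output over input reads, centred on the mode score of non-aggregating sequences. Psi-negative yeast expressing Sup35N fused to peptides of 20 random codons were induced with 100 μM copper sulfate for 24 hours and grown 7 days at 30°C on medium lacking adenine and uracil. Input and output plasmid inserts were Illumina-sequenced, and sequences with under 100 input reads were excluded.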

Substance | amyloid nucleation score
QMVGESDECRCSLYSGQWKG | -0.186 ± 0.42
QNDVSGKLGNKLSSVCSLRR | 0.405 ± 0.95
QNFSRTGGIGIHKIFVGMGE | -1.13 ± 1.4
QNPNVDERNSTS | 0.69 ± 0.52
QPNSWELWPCSDLRIRLVEE | 0.104 ± 0.34
QQLYINC | 0.199 ± 0.47
QRIGHLVLDSVGRTSCVMGA | 0.386 ± 0.41
QRLFRYNPTKSRGLCNNTWA | 0.59 ± 0.22
QRMLDTLH | -0.134 ± 1.7
QRQNVYVGGYIANMVHGSGC | 1.27 ± 0.58
QRRALHTL | -0.069 ± 0.46
QRSRHSIFQGILRGSNSSWD | 1.12 ± 0.69
QSDKCCLMYGECVHVVC | 2.83 ± 0.069
QSNSTYYGGSSRSGEKFPLG | 3.83 ± 0.083
QSRSL | 0.703 ± 0.66
QTLCCETRWSGENRSDAFRV | -0.596 ± 0.79
QTSSFFCSV | -2.12 ± 2.4
QVLDTGVVTDWSVIPFGRSY | 0.483 ± 0.65
QVNDIGP | -0.341 ± 0.22
QVTTSPQ | -0.387 ± 0.56
QVVRIYQVQGLWIMVHR | 1.96 ± 0.28
QVWITWVGRKLPHRGKTVGN | -0.379 ± 0.53
QWCDKVFL | -0.687 ± 0.4
QWCNIVGSMIVDITQELML | 1.75 ± 0.25
QWLAVVVIKVGLTWQYRFGG | 0.198 ± 0.91
QYFKPGVASPSGDPVFKKKV | -0.404 ± 0.43

Substance | amyloid nucleation score
QYLFIYFLALS | -1.27 ± 0.53
QYVPNTLDNSPDAVGMSNIY | -0.29 ± 1.7
RADWYASAGKRCGHLQG | -0.148 ± 0.3
RALGIDIRIFMVDDNSAFSI | 0.347 ± 1.1
RALSVRSRQLG | 0.135 ± 0.97
RALVDRLSTS | 0.472 ± 0.82
RAPLLMSVTLLRHQFCTRME | 1.8 ± 0.21
RARTKAWWMDWSGYRRGGHL | 0.118 ± 0.58
RAVGDM | -0.241 ± 0.52
RCEVESIRNGLAKAGSVTMR | 0.515 ± 0.38
RCGGM | -0.381 ± 0.64
RCIPLNNNFYASKQLLMSME | 0.259 ± 0.62
RCLMPYNYE | 0.952 ± 0.49
RCNSDESYL | 0.078 ± 0.42
RCRYVRLETSLC | -0.083 ± 0.47
RCRYYCNR | -0.152 ± 0.48
RCSTPRCSPL | -0.237 ± 0.62
RCWGRAYMYRPCCISV | -1.06 ± 0.8
RCYIDYSVEFRLHMIKMKTR | -0.227 ± 0.65
RDAIYYKICLAQPRSF | -0.465 ± 0.38
RDCPGL | -0.95 ± 2.7
RDHMAYYMSVVGSSKNPLRR | inactive
RDSHSLMVVGFRYELSQGLK | 0.496 ± 1.1
RDSNVGIFHNSR | -1.35 ± 0.87
RDYFTN | 0.789 ± 0.9
REDWSTLEPYPHYDTAIGRS | 1.24 ± 0.8

Substance | amyloid nucleation score
REEYYGIPSEINGHTTLVYS | 1.03 ± 0.72
REFGLLAWVELLFWATFR | -0.676 ± 0.94
REGATIPWFRCNRLE | -0.167 ± 0.33
REIIGRLLSVRTSLAEYNSG | -0.514 ± 0.91
RFCGVMESERTVIRKCREVG | 0.095 ± 0.42
RFCISNARRRFLRPFGSYL | 0.072 ± 1.1
RFCRSIAFA | 0.237 ± 0.32
RFEGERRVVG | -0.035 ± 0.3
RFEMNCWSC | -0.802 ± 0.39
RFFCDCFFGSRGE | 1.88 ± 0.36
RFFCSD | 0.641 ± 0.97
RFFRISWIFMSDSRPTRSDF | 0.793 ± 0.84
RFGYFFHLVGAGEGHGKGAC | 0.686 ± 0.59
RFNSYEVVIRVWRDSMISEG | 1.09 ± 0.78
RFNWSSDLCSFKTPLSKHVG | 0.258 ± 0.41
RFRYDTVMMNMFLNRVSFGG | 1.38 ± 0.4
RFSWPWTDYNMKNYA | -0.119 ± 0.21
RFTGQWWYVFSLWAILSRIK | 0.357 ± 0.55
RFVLVMYMESLKMHCSLTYT | -0.381 ± 0.27
RFVNKGGT | -0.325 ± 0.69
RFYMWYLVLEVLEIGKLADP | -1.04 ± 2.7
RGDAIMAWGSVVRYIHYILY | 1.51 ± 0.5
RGDLSYYCRSNN | -0.5 ± 1.4
RGFADLCAFEDMCIRFDESL | 0.878 ± 0.64
RGFCTGNDVF | inactive
RGGKGPRFVYNRFISRAAGR | -0.869 ± 0.74

Substance | amyloid nucleation score
RGGRWLMATWMMPGNGCLAA | 0.708 ± 0.52
RGICWWLNIHWGKAMDMLGP | 0.428 ± 0.97
RGLYFNALSR | -0.167 ± 0.43
RGNRHTSGNVTL | 0.045 ± 0.35
RGNSFIRRY | 0.285 ± 0.47
RGPLDP | 0.361 ± 0.45
RGRVSNY | -0.455 ± 1.4
RGSIRIKDMTCGLEIGIALR | -0.001 ± 0.44
RGSQGLVNLYIAFPMECLGI | 3.73 ± 0.087
RHAKRLWRV | -0.574 ± 0.78
RHISAAEPQSVESMIAKGN | -0.054 ± 0.98
RHIYVSVNERLYVEFNYIAG | 2.19 ± 0.34
RHMHSQFPAGLLIVGLRIVW | 0.915 ± 0.75
RHVGVAGFRFLPGPCDWPAR | 3.94 ± 0.14
RHVNEQDILREQFLLMDFRK | 0.753 ± 0.72
RHVVRR | 0.441 ± 0.36
RICPKNCMSISVI | 0.305 ± 0.29
RIDDSIFLDFWM | -0.214 ± 0.4
RIENNFLSTSFVFSCLIGNM | 5.88 ± 0.07
RIGETASYTL | -0.09 ± 0.47
RIGTGSHLWII | -0.083 ± 0.6
RIISGRLSSMFVNSIKVIMD | 0.889 ± 0.21
RIKNGLPKGFFGKSLSPMRW | -0.161 ± 0.8
RIRIVNITGAESPMLCLNHE | 4.42 ± 0.12
RIRWSVVVNV | -0.002 ± 0.29
RISNRCSCSCNFDQGGVRQP | 0.394 ± 1.1

Substance | amyloid nucleation score
RIVILLKVIYFQFYRLQYIT | 0.03 ± 0.32
RIVKSGGFNR | -0.089 ± 0.39
RIVLILRSNHCQNSY | 0.641 ± 0.3
RIWDCRYCKG | -0.184 ± 0.29
RIWPRSMYRPSSGCVET | -0.281 ± 0.52
RKNFLGIGQKLGSSSDWGG | -0.899 ± 1
RKNSNDEASS | -0.339 ± 0.31
RKRVCSGLRSFWSFFRCLRV | -0.711 ± 2.1
RKVGVGKYLSHFECANRIWL | 0.3 ± 0.33
RKVITDKTLL | -0.099 ± 0.45
RLCKKSIHRDVASRFPNEDV | 1.02 ± 0.36
RLFFSE | 0.117 ± 0.32
RLFGLPKYCYVILFPVDVCH | 0.132 ± 0.21
RLFVVEELESWGCFNWASIM | -1.7 ± 2.4
RLKLTGFMGLSILERVTLCS | -0.396 ± 0.52
RLLFITYSMVSKYNKCLIRG | 0.048 ± 0.74
RLLRYMRDIR | -0.814 ± 0.57
RLMRHNMPTVVEHAGSSRSN | -0.132 ± 0.31
RLMTDHINSTVTSMGKGRIT | -0.026 ± 0.22
RLNDNRYSYVVVS | -0.127 ± 0.64
RLPLMNWFTAMA | 0.037 ± 0.42
RLRITVTISATAGMMRRLHR | 2.39 ± 0.14
RLRLWFVASRMVDKGSGLNV | 0.67 ± 0.49
RLRSLDHWSWDAVMLMRAQL | 0.432 ± 0.34
RLSGKFFICVGLKCVIWLRG | -1.09 ± 0.54
RLSRLLTLISVACSTFLCVV | -1.84 ± 2.1

Substance | amyloid nucleation score
RLWGYCMHSLVFDTNIWHPL | 0.461 ± 0.32
RLWYGRSPWELVTIRSQARG | 0.14 ± 0.31
RLYYLGMSGYLRHNPASCVL | -1.56 ± 2.7
RMAPMMDP | -0.227 ± 1.1
RMTWQM | -0.885 ± 2.1
RMYLGVLIRHWIDSFAFGMQ | 0.193 ± 0.32
RMYYAFVCGGEDMESEFPCY | -0.037 ± 1.4
RNFFDLCGTSKRRMRIS | -0.15 ± 0.47
RNFPTRCMCIQNYAKL | 2.22 ± 0.17
RNIVIMYRNCLVKLNLETGS | 6.77 ± 0.053
RNLEVIYNSI | 0.229 ± 0.52
RNLTDQL | 2.99 ± 0.2
RNNEDGRLKDRRRGLSHGPC | -0.763 ± 0.36
RNSIVGCGYDVGTHVSDLGP | -0.035 ± 0.41
RNVGFLFSKRDQPWLKSPGD | -0.983 ± 2.4
RNYLIDV | -0.668 ± 0.4
RPCIWFGTTCFYCTVFN | 5.76 ± 0.061
RPLVGTGIYSVVRSLFRLCV | -1.16 ± 0.59
RPWAWPRCRSCAST | 0.689 ± 0.37
RQARFSFDLRFP | 0.567 ± 0.35
RQDAVNNNTCNSISFNP | 0.048 ± 0.52
RQGSDGVSSRKLWFFVRIAI | -0.383 ± 1.7
RQSLRRSYHHRWKRDVMR | inactive
RQTGVYCKFNRSRDSILLSH | -0.782 ± 0.86
RRGSNDDSYHRRQVDRKPMA | 0.166 ± 0.66
RRLNCLILFKVVLLATIFCI | -1.42 ± 0.58

Substance | amyloid nucleation score
RRLTILSTSPWCTPLELNSF | -0.282 ± 0.37
RRNHNSRVVINVLMHVRCSI | 1.95 ± 0.1
RRNVWASVTGGELWKGDLSR | -0.498 ± 1.1
RRSGTLDGSGSGSCVRLPPN | -0.172 ± 0.5
RSARIKNWSSLYLWMINSCV | 0.469 ± 0.32
RSCGMTVGACSYVACVSYCT | 6.02 ± 0.066
RSCGQFLSWSACPFVSLRRR | 0.274 ± 0.46
RSCMRPFIGIMSSSPQIDKA | -0.53 ± 0.77
RSETGMYSAHACLL | -0.314 ± 1.7
RSEVYFNWGLNASMEVSPLC | -0.02 ± 0.41
RSFLMPDE | 0.307 ± 0.46
RSHGNGSGSRTVAF | -0.1 ± 0.49
RSIFVP | inactive
RSIRC | -0.615 ± 1.1
RSISSVLVSIFTKMG | 0.232 ± 0.35
RSLFFV | -0.867 ± 0.86
RSMDRTGSIAGRYCVKKMSS | 0.423 ± 0.3
RSNCDFLSNNYGFLFGFLSQ | 0.525 ± 0.44
RSPFWRDVKNKITVSPIFAN | 0.945 ± 0.61
RSPRGSVFHMFI | 0.176 ± 1.6
